Results reported in patent publication US20240226163A1.

Assays:
Experiment in all cases: flow cytometry, peptide-pulsed T2 cells, 100 nM antibody
[1] = target: HLA-A*02:01 presenting MAGE-A4 230-239 peptide (…) (human)
[2] = target: HLA-A*02:01 presenting MAGE-A10 254-263 peptide (…) (human)
[3] = target: HLA-A*02:01 presenting SCL25A19 111-120 peptide (…) (human)
[4] = target: HLA-A*02:01 presenting PAPPA2 307-316 peptide (…) (human)
[5] = target: HLA-A*02:01 presenting FAT4 4053-4062 peptide (…) (human)
[6] = target: HLA-A*02:01 presenting CELSR3 1594-1603 peptide (…) (human)
[7] = target: HLA-A*02:01 presenting MAGE-A8 232-241 peptide (…) (human)
[8] = target: HLA-A*02:01 presenting CCDC36 417-426 peptide (…) (human)
[9] = target: HLA-A*02:01 presenting LPIN2 823-832 peptide (…) (human)
[10] = target: HLA-A*02:01 presenting THBS3 116-125 peptide (…) (human)

For “mAb1097 (mIgG2a Isotype Control) (antibody)”, the Antibody Binding Ratio (pulsed cell MFI/Unpulsed cell MFI) [1] was 4.3, the Antibody Binding Ratio (pulsed cell MFI/Unpulsed cell MFI) [2] was 1.3 and the Antibody Binding Ratio (pulsed cell MFI/Unpulsed cell MFI) [3] was 0.9. It also gave an Antibody Binding Ratio (pulsed cell MFI/Unpulsed cell MFI) [4] of 0.9, an Antibody Binding Ratio (pulsed cell MFI/Unpulsed cell MFI) [5] of 1.1 and an Antibody Binding Ratio (pulsed cell MFI/Unpulsed cell MFI) [6] of 0.9. For the same substance, the Antibody Binding Ratio (pulsed cell MFI/Unpulsed cell MFI) [7] was 3.3, the Antibody Binding Ratio (pulsed cell MFI/Unpulsed cell MFI) [8] was 1.1 and the Antibody Binding Ratio (pulsed cell MFI/Unpulsed cell MFI) [9] was 0.9. The Antibody Binding Ratio (pulsed cell MFI/Unpulsed cell MFI) [10] was 1.
